From patent publication US20100136005A1 (Genentech, published 2010) come the findings set out here.

The target in assay [1] is T1, human CD11a (human, UniProt P20701 26-1170). Description: cell-based or functional assay.
In assay [2] the target is T2, rhesus CD11a (rhesus, UniProt H9Z8N3 26-1169).
T2 construct: whole, on cells; also called rhCD11a
T2 sequence: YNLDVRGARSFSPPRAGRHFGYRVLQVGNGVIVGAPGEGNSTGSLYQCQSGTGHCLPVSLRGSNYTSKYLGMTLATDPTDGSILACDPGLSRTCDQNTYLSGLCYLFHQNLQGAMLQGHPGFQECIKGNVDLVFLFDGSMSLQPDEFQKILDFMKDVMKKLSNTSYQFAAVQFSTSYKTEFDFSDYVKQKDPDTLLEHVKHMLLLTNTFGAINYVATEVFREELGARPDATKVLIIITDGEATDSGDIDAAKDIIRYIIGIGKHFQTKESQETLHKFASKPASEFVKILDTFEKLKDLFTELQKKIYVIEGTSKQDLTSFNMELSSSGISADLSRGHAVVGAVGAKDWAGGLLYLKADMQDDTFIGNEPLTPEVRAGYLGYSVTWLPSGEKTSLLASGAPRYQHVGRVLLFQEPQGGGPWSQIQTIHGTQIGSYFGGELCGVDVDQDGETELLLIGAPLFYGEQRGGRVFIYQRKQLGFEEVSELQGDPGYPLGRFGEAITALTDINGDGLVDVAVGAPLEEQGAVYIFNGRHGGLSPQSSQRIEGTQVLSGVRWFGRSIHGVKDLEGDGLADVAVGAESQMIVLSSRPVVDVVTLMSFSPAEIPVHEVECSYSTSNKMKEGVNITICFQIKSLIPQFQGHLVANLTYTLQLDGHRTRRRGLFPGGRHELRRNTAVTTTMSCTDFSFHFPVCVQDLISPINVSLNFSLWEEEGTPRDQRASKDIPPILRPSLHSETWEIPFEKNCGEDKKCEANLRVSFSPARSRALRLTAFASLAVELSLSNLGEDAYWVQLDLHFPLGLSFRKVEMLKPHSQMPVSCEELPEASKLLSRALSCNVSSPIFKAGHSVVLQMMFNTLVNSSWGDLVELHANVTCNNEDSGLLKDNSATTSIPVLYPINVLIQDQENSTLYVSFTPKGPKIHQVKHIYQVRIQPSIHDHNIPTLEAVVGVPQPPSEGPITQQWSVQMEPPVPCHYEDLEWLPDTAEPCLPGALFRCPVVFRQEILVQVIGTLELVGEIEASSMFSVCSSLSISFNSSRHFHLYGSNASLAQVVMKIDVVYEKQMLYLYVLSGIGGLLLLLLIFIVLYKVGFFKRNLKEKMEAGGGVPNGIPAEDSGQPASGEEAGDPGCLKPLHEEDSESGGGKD
Description: binding to rhesus peripheral blood lymphocytes.

For assay [3], the target named is T1, human CD11a. Briefly: FACScan, Jurkat cells. On the procedure:
(§1) Aliquots of 10⁶ Jurkat T-cells were incubated with serial dilutions of humanized and control antibodies in PBS-0.1% BSA-10 mM sodium azide for 45 min at 4° C. The cells were washed and then incubated in fluorescein-conjugated goat anti-human F(ab′)₂ (Organon Teknika, Westchester, Pa.) for 45 min at 4° C. Cells were washed and analysed on a FACScan (Becton Dickinson, Mountain View, Calif.). 8×10³ cells were acquired by list mode and gated by forward light scatter versus side light scatter, thereby excluding dead cells and debris.

Assay [4] concerns the target T1, human CD11a. Briefly: FACScan, Jurkat cells; ratio to HuIgG1 EC50 (0.042 nM). On the procedure: as §1
The target of assay [5] is T2, rhesus CD11a. Briefly: binding to rhesus peripheral blood lymphocytes; ratio to HuIgG1 EC50 (45.6 nM).

Where a chain is given by its changes, count along the chain named.

B1: chimeric MHM24 IgG1 (antibody, V domains shown)
VH: EVQLQQPGAELMRPGASVKLSCKASGYSFTGHWMNWVRQRPGQGLEWIGMIHPSDSETRLNQKFKDKATLTVDKSSSSAYMQLSSPTSEDSAVYYCARGIYFYGTTYFDYWGQGTTLTVSS
VL: DVQITQSPSYLAASPGETISINCRASKTISKYLAWYQEKPGKTNKLLIYSGSTLQSGIPSRFSGSGSGTDFTLTISSLEPEDFAMYYCQQHNEYPLTFGTGTKLELKR
For B1, the “IC50 Value (nM), Jurkat:HuK cell adhesion” value with human CD11a [1] is 0.1 nM.

B2: AspH54Ala (antibody, human IgG1, V domains shown)
VH: EVQLVESGGGLVQPGGSLRLSCAASGYSFTGHWMNWVRQAPGKGLEWVGMIHPSASETRYNQKFKDRFTISVDKSKNTLYLQMNSLRAEDTAVYYCARGIYFYGTTYFDYWGQGTLVTVSS
VL: DIQMTQSPSSLSASVGDRVTITCRASKTISKYLAWYQQKPGKAPKLLIYSGSTLQSGVPSRFSGSGSGTDFTLTISSLQPEDFATYYCQQHNEYPLTFGQGTKVEIK
notes: HuIgG1 variant (human IgG1); also called AspH54 change to Ala
Turning to B2, in the assay with rhesus CD11a [2], the “fold improvement over HuIgG1” value was 3 fold.

B3: humanized MHM24 F(ab)-4 (Fab, V domains shown)
VH: B2 VH with Y27F, A55D, V72R, K74N
VL: B2 VL with T53S, Q55E
On to B3, for which the “fold reduction in binding (against F(ab)-2)” value with human CD11a [3] was determined as 3 fold.

B4: AspH54Gln (antibody, human IgG1, V domains shown)
VH: B2 VH with A55Q
VL: B2 VL
notes: HuIgG1 variant (human IgG1); also called AspH54 change to Gln
For B4, the “Variant EC50/HuIgG1 EC50” value with human CD11a [4] stood at 20 ratio; with rhesus CD11a [5], 4.4 ratio.

B5: GluH56Ala (antibody, human IgG1, V domains shown)
VH: B2 VH with A55D, E57A
VL: B2 VL
notes: HuIgG1 variant (human IgG1)
For the molecule B5, the “fold improvement over HuIgG1” value with rhesus CD11a [2] amounted to 3 fold.

B6: H2A1 (antibody, human IgG1, V domains shown)
VH: B2 VH with H52A, S54A, A55D
VL: B2 VL
notes: HuIgG1 variant (human IgG1); also called HisH52Ala/SerH53Ala; HisH52Ala-SerH53Ala
As for B6, the “fold improvement in binding compared to HuIgG1” value in the assay with rhesus CD11a [2] amounted to 77 fold.

B7: AspH54Lys (antibody, human IgG1, V domains shown)
VH: B2 VH with A55K
VL: B2 VL
notes: HuIgG1 variant (human IgG1); also called AspH54 change to Lys
As for B7, in the assay with rhesus CD11a [5], the “Variant EC50/HuIgG1 EC50” value turned out to be 3.8 ratio.

B8: AspH54Glu (antibody, human IgG1, V domains shown)
VH: B2 VH with A55E
VL: B2 VL
notes: HuIgG1 variant (human IgG1); also called AspH54 change to Glu
As to B8, the “Variant EC50/HuIgG1 EC50” value with human CD11a [4] was 16 ratio.

B9: humanized MHM24 F(ab)-7 (Fab, V domains shown)
VH: B2 VH with A55D, K76S, N77S
VL: B2 VL
notes: F(ab) with human CL and CH1; Worked back from F(ab)-8
For the molecule B9, the “fold improvement in binding (against F(ab)-6)” value with human CD11a [3] turned out to be 3 fold.

B10: H2 (antibody, human IgG1, V domains shown)
VH: B2 VH with H52A, S54A, A55D, S56A
VL: B2 VL
notes: HuIgG1 variant (human IgG1); also called variant H2; HisH52Ala/SerH53Ala/SerH55Ala
Regarding B10, the “fold better than HuIgG1” value in the assay with rhesus CD11a [2] came out at 18 fold.

B11: humanized MHM24 F(ab)-5 (Fab, V domains shown)
VH: B2 VH with Y27F, A55D, K76S, N77S
VL: B2 VL with T53S, Q55E
notes: as for B9
Consider B11, for which the “fold improvement in binding (against F(ab)-2)” value in the assay with human CD11a [3] is 23 fold.

B12: AspH54Ser (antibody, human IgG1, V domains shown)
VH: B2 VH with A55S
VL: B2 VL
notes: HuIgG1 variant (human IgG1); also called AspH54 change to Ser
On to B12, for which the “Variant EC50/HuIgG1 EC50” value with rhesus CD11a [5] stood at 0.9 ratio.

B13: humanized MHM24 F(ab)-6 (Fab, V domains shown)
VH: B2 VH with Y27F, A55D, K76S, N77S
VL: B2 VL
notes: as for B9
Regarding B13, the “fold improvement in binding (against F(ab)-5)” value with human CD11a [3] is 4 fold.
